Measurements reported in patent US9688764B2, “Methods of treating breast cancer by administering anti-human prolactin receptor (PRLR) antibodies” (REGENERON PHARMACEUTICALS, INC., priority 2013, dated 2017).

B1: H1H6800P-DM1 (conjugate)
VH: EVQLVESGGGLVQPGRSLRLSCAASGFTFDGYAMHWVRQGPGKGLEWVSGISWYSDTLGYADSVKGRFTISRDNAKNSLYLQMNSLRTEDTAFYYCAKISSSGWAFDYWGQGTLVTVSS
VL: EIVLTQSPGTLSLSPGERATLSCRASHSVSSAYLAWYQQKPGQTPRLLIYGTSSRATGIPDRFSGSGSGTDFTLTISRLEPEDFAVYYCQQYGSSPLFTFGPGTKVDIK
B2: H1H6803P-DM1 (conjugate)
VH: EVQLVESGGGVVRPGGSLRLSCAASGFKFDDYGMTWVRHVPGKGLEWVSGINWNGGRTGYTDSVKGRFTISRDNAKNSLYLQMNSLRAEDTALYHCAGARRDAFDIWGQGTMVTVSS
VL: DIQMTQSPSSLSASIGDRVTITCRASQNIIKYLNWYQQNAGKAPKLLIYTASSLQSGVPSRFSGSGSGTDFTLTISSLQPEDFATYYCQQSSSSPYTFGQGTKLEIK
B3: H1H6953N-SMCC-DM1 (conjugate)
VH: EVQLLESGGGLVQPGGTLRLSCAASGFTFSAYAMSWVRQAPGKGLEWVSSINVRAGDTYYADSVKGRFTISRDNSKNTLFLLMNSLRAEDTAAYYCAKARYSSNWGFDFWGQGTLVTVSS
VL: DIVMTQSPDSLTVSLGARTTINCQSSQTILHSSNNHNYLAWYQQKPGLPPKLLIYWSSTRESGVPDRFSGSGSGTDFTLTISSLQAEDVAIYYCQQYSNTPYTFGQGTKLEIN
B4: H1H6958N2-mc-VC-PAB-MMAE (conjugate)
VH: QVQLVESGGGVVQPGRSLRLSCGASGFTFRNYGMQWVRQGPGKGLEWVTLISFDGNDKYYADSVKGRFTISRDNSKNTLFLQMNSLRTEDTAVYYCARGGDFDYWGQGTLVTVSS
VL: DIQMTQSPSSLSASVGDRVTITCRASQDIRKDLGWYQQKPGKAPKRLIYAASSLHSGVPSRFSGSGSGTEFTLTISSLQPEDFATYYCLQHNSYPMYTFGQGTKLEIK
B5: H1H6765P-mc-VC-PAB-MMAE (conjugate)
VH: EVQLVESGGGVVRPGGSLRLSCVGSGFSFDDHGMNWVRQGPGKGLEWVSGFNWNGGSTNYAESVKGRFTISRDNARNSLFLQMNSLRAEDTALYYCVRGRSGWFNDAFDVWGPGTMVTVSS
VL: EIVLTQSPGTLSLSPGERATLSCRASQTINSNYLAWYRQKPGQTPRLLIYGTSSRATGIPDRFSGSGSGTDFSLTISRLEPEDFAVFYCQQYAGLPTFGPGTKVDIK
B6: H1H6762P-DM1 (conjugate)
VH: QVQLVESGGGVVQPGRSLRLSCAASGFTFSHYGMVWVRQPPGKGLEWVALISFDGTTKYYADSVKGRFTISRDNSKNTLYLQMNSLRAEDTAVYFCVGAIAAAAFDLWGRGTLVTVSS
VL: EIVMTQSPATLSVSPGERATLSCRASQSVSSDLAWYQQKPGQAPRLLIYSASARATGIPARFTGSGSGTDFTLTISSLQSEDFAVYYCQQYNNWPMYTFGQGTKLEIK
B7: H1H6793P-DM1 (conjugate)
VH: EVQLVESGGGLVQPGGSLRLSCAASGFSFSIYAMSWFRQAPGKGLEWVSAINGRGDGTHYADSVKGRFTISRDNSKTTLYLQMSSLRAEDTAVYYCAKPVMSTNGFDIWGQGTMVTVSS
VL: DIQMTQSPSTLSASVGDRVTITCRASQSISSWLAWYQLKPGKAPKLLIYKASNLESGVPSRFSGSGSGTEFTLTISSLQPDDFATYYCQQYNIYWTFGQGTKVEIK
B8: H1H6975P-DM1 (conjugate)
VH: EVHLVESGGGLVQPGGSLRLSCAASGFTFSSYEMNWVRQTPGKGLEWISHISSRSVIIYYADSVKGRFTISRDNAKNSLFLQMNSLRAEDTAVYFCAGITIFGIPEYWGQGTLVTVSS
VL: EIVLTQSPATLSLSPGERATLSCRASQSVSSYFAWYQQKPGQAPRLLIYDASSRATGIPTRFSGSGSGTDFTLTISSLEPEDFAVYYCQQRSSWPITFGQGTRLEIK

system: PC3 cells; test: Cell viability (cell kill) assay; assay type: cell-based; conditions: Table 11, 3 days
Text: (§1) PRLR-overexpressing cells, including HEK293, PC3, MCF7 and NCI-N87, were generated to assess the ability of anti-PRLR conjugated antibodies to reduce cell viability. For comparative purposes, PC3 and T47D cells with overexpressed ErbB2 were also generated, as well as an MCF7 cell line over-expressing both hPRLR and hErbB2. Briefly, Lipofectamine® 2000-mediated transfection methodology was utilized to generate HEK293 cells expressing human PRLR (HEK293/hPRLR) or human ErbB2 (HEK293/hErbB2). Lipofectamine LTX with Plus Reagent was used to generate PC3 cells expressing human PRLR (PC3/hPRLR) or human ErbB2 (PC3/hErbB2). Lentiviral-mediated transduction was utilized to generate MCF7 cells expressing human PRLR (MCF7/hPRLR), NCI-N87 cells expressing human PRLR (NCI-N87/hPRLR), T47D cells over-expressing human ErbB2 (T47D/hErbB2), and MCF7 cells expressing both human PRLR and human ErbB2 (MCF7/hPRLR/hErbB2). All lines were selected for at least two weeks in complete growth media plus appropriate selection reagents. Stably expressing populations were enriched for PRLR expression via FACS using the anti PRLR antibody Control I.
(§2) Next, the ability of anti-PRLR-DM1 antibody-drug conjugates (i.e., anti-PRLR antibodies conjugated to DM1 via a non-cleavable linker [SMCC]) to reduce cell viability was determined using in vitro cell based assays. Cells were seeded in PDL-coated 96 well plates at 1500 to 10000 cells per well in complete growth media and allowed to grow overnight. For cell viability curves, ADCs or free DM1 (as the methyl disulfide derivative DM1-SMe) were added to the cells at final concentrations ranging from 500 nM to 5 pM and incubated for 3 days. The 293, PC3 and T47D cells were incubated with CCK8 (Dojindo, Rockville, Md.) for the final 1-3 hours and the absorbance at 450 nm (OD450) was determined on a Flexstation3 (Molecular Devices, Sunnyvale, Calif.). MCF7 cells were treated with Hoechst 33342 nuclear stain while being fixed with 4% formaldehyde. Images were acquired on the ImageXpress micro XL (Molecular Devices, Sunnyvale, Calif.) and nuclear counts were determined via Columbus image analysis software (Perkin Elmer, Shelton, Conn.). Background OD450 values (PC3, 293, and T47D) or nuclear counts (MCF7) from digitonin (40 nM) treated cells was subtracted from all wells and viability was expressed as a percentage of the untreated controls. IC50 values were determined from a four-parameter logistic equation over a 10-point response curve (GraphPad Prism).
(§3) Finally, the potency of anti-PRLR antibodies conjugated to DM1 via the non-cleavable linker SMCC was compared to the cell killing potency of anti-PRLR antibodies conjugated to MMAE via the cleavable linker: mc-vc-PAB (available from Concortis, San Diego, Calif.). Cells used in this experiment were PC3, PC3/hPRLR, MCF7/ATCC and MCF7/PRLR.

Row | Molecule | IC50 [nM]
1 | B1 | 150
2 | B2 | 150

same assay, conditions: Table 18

Row | Molecule | IC50 [nM]
3 | B3 | 90
4 | B4 | 100
5 | B5 | 150

system: HEK293 (293) cells; test: Cell viability (cell kill) assay; assay type: cell-based; conditions: 293; Table 11; 3 days
Text: as §1, §2

Row | Molecule | % Kill [%] | IC50 [nM]
6 | B1 | 85 | 150
7 | B6 | – | 100

same assay, conditions: 293; Table 19

Row | Molecule | % Kill [%] | IC50 [nM]
8 | B3 | 90 | 100

system: T47D cells; test: Cell viability (cell kill) assay; assay type: cell-based; conditions: T47D; Table 12; 3 days
Procedure: as §2
Additionally, the impact of the PRLR ligand, PRL, on PRLR-SMCC-DM1 cell kill in T47D cells was assessed. T47D cells were incubated simultaneously with PRL (15 nM) and either a non-blocking anti PRLR antibody (H1H6782P) or a receptor blocking antibody (H1H6958N2).
(§4) Additional toxins (DM4, MeNHC3-May, and MMD) conjugated to anti-PRLR antibodies were also tested in T47D and MCF7/hPRLR cell lines, and results are summarized in Tables 19 (293 and T47D cell killing) and 20 (MCF7/ATCC and MCF7/PRLR cell killing). (ND=not detected).

Row | Molecule | % Kill [%]
9 | B1 | 79
10 | B7 | 53
11 | B6 | 80
12 | B2 | 77

same assay, conditions: T47D; Table 12; 3 days; read-out: IC50

Row | Molecule | IC50 [nM]
13 | B1 | 3.2
14 | B7 | 11.1
15 | B6 | 12.6
16 | B2 | 8.61

same assay, conditions: T47D; Table 19

Row | Molecule | % Kill [%]
17 | B3 | 100
18 | B4 | 90
19 | B5 | 90

same assay, conditions: T47D; Table 19; read-out: IC50

Row | Molecule | IC50 [nM]
20 | B3 | 1.5
21 | B4 | 1
22 | B5 | 1

system: MCF7/hPRLR (MCF7/PRLR) cells; test: Cell viability (cell kill) assay, nuclear counts; assay type: cell-based, human; conditions: Table 12, 3 days
Text: as §1, §2, §3, §4

Row | Molecule | % Kill [%] | IC50 [nM]
23 | B1 | 85 | 0.4
24 | B7 | 87 | 0.54
25 | B6 | 83 | 0.46
26 | B2 | 84 | 0.44

same assay, conditions: Table 18

Row | Molecule | % Kill [%] | IC50 [nM]
27 | B3 | 80 | 0.1
28 | B4 | 88 | 0.2
29 | B5 | 86 | 0.2

same assay, conditions: Table 20

Row | Molecule | % Kill [%] | IC50 [nM]
30 | B3 | 80 | 0.3
31 | B4 | 90 | 0.2
32 | B5 | 90 | 0.2

system: MCF7 (MCF7/ATCC) cells; test: Cell viability (cell kill) assay, nuclear counts; assay type: cell-based; conditions: MCF7/ATCC; Table 18
Text: as §1, §2, §3, §4

Row | Molecule | % Kill [%] | IC50 [nM]
33 | B3 | 70 | 80
34 | B4 | 53 | 150
35 | B5 | 38 | 150

same assay, conditions: MCF7/ATCC; Table 20

Row | Molecule | % Kill [%] | IC50 [nM]
36 | B3 | 70 | 90
37 | B4 | 50 | 150
38 | B5 | 40 | 150

same assay, conditions: MCF7; Table 12; 3 days

Row | Molecule | % Kill [%] | IC50 [nM]
39 | B1 | 65 | 150
40 | B7 | 67 | 125
41 | B6 | 64 | 110
42 | B2 | 60 | 150

system: PC3/hPRLR cells; test: Cell viability (cell kill) assay; assay type: cell-based, human; conditions: PC3/PRLR; Table 11; 3 days
Text: as §1, §2, §3

Row | Molecule | % Kill [%] | IC50 [nM]
43 | B1 | 68 | 1.37
44 | B7 | 65 | 3.65
45 | B6 | 66 | 0.98
46 | B2 | 70 | 2.32

same assay, conditions: PC3/hPRLR; Table 18

Row | Molecule | % Kill [%] | IC50 [nM]
47 | B3 | 83 | 0.4
48 | B4 | 82 | 0.5
49 | B5 | 85 | 0.4

system: not listed separately; test: Conjugate characterization: protein and linker/payload concentrations, payload loading (UV, MALDI-TOF, SEC-HPLC, RP-HPLC); assay type: physicochemical; conditions: Anti-PRLR-SMCC-DM1 conjugates; Table 9
Text: Selected anti-PRLR antibodies were conjugated to the maytansinoid DM1 through an SMCC linker using methods similar to those set forth in U.S. Pat. No. 5,208,020 and US Patent Application Publication No. 2010/0129314, the disclosures of which are incorporated by reference herein in their entireties. The conjugates were purified by size exclusion chromatography and sterile filtered. All starting materials and solvents were purchased commercially and used without purification, unless otherwise noted.
Protein and linker/payload concentrations were determined by UV spectral analysis and MALDI-TOF mass spectrometry. Size-exclusion HPLC established that all conjugates used were >95% monomeric, and RP-HPLC established that there was <0.5% unconjugated linker payload. Yields are reported in Table 8 and 9 based on protein. All conjugated antibodies were analyzed by UV for linker payload loading values according to Hamblett et al, 2004, Clinical Cancer Research 10(20):7063-7070, and by mass difference, native versus conjugated.

Row | Molecule | Payload:Antibody Molar Ratio (MS) | Payload:Antibody Molar Ratio (UV)
50 | B1 | 3.2 | 3.0
51 | B7 | 3.8 | –
52 | B6 | 2.9 | –
53 | B2 | 3.1 | –
54 | B8 | 3.4 | 3.0
